Experimental data as given in paper PMC6676471.
Where no end group is shown, it is not given here. [ ]: non-standard residue; d: D form. 2Abz = Nc1ccccc1C(=O)O

Molecular target: tcFGE_(W228F), inactive variant of formylglycine generating enzyme from Thermomonospora curvata (Thermomonospora curvata) (UniProt D1A7C3)
Assay: ITC

Sequence of UniProt D1A7C3 (D1A7C3 20-303 W228F): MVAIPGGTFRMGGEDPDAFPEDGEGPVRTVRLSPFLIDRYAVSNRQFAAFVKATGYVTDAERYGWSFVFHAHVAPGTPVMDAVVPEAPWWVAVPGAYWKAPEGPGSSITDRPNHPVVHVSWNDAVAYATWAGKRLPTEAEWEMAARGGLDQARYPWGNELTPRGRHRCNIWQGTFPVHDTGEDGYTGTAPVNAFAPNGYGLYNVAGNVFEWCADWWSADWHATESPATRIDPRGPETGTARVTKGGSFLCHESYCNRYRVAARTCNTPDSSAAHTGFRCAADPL

With [2Abz]ATTPLCGPSRASILSGR [FGE-27: Abz-…] the Kd was 40 nM.
